Measurements as given in the DeepSol protein solubility set.

Test: soluble on expression in E. coli; label from the status in PepcDB or PDB records

Sequence	soluble on expression in E. coli
MGSDKIHHHHHHMRSIADQYNVSTNSVSRRILALGKQTMPAYDGLPQTLCIDEFRSTSNQMSFITIDGQKHDIITILPGRQTNEIKQFFLNHYSLKNREQVTQVVMDLNAQYQTFIHYLFPNAKLIVDNFHLVQMALRALNQTRVQLMKKYHPNTPEYWVLKSYWRLYLMNYEALEKSQPQWFSHLRNRLTQEQLIWSGLNLSHEFENTYFTAHKLVEAFRSRDYAAFTATLDEVENVSPQLFTTIKTFIKNKKLIQNMTSSTLSNGPIEGVNRKIKQIKRTAYGYRNWKNFVFRIQIEFKIRLKKRNPVRK	not soluble
MGSDKIHHHHHHMRVASERLILGDRITESLFLHTDIPIVEAGKKIGADELRRIKRFLIKEVDIEKRPEGMSEASMMDQELDDMIEDSIFDSLIETYNQVFTSWEQGLVPNVYDALRWVKESMPETMRRDDILPYFLERGTEAYTVRHAIYRGAIAQLLAEAAGKERKMIHDLWVASYFADCGLARIMEWRHTKRYEAMQQEIFHRHPAMAFQALQKENIISDTVKRLIVQHHERLDGSGYPLKVKGDKIMDHTRLFIVADVFAAMTSWRPYREAYKVYDAYCHLKARPMQYDSKYVMLLGQLLLPIEPGDRVLMSNGKIATVLRKNSIFDRPVIAYEEHNRRIVKDLMEDRQLNIIQLMD	not soluble
MGSDKIHHHHHHMRVIDGGVTAPKGFKANGYKEGKFGVAIIISEKDAVGAGTFTTNKVVAHPVVLSRELIKNRDKFRAIVANSGNANCFTKDGMEDAKEMQRLVAELFNINEDEVLVASTGVIGRKMDMNIIKDRINKVYNLIKEGNSSINAAKAIMTTDTKPKEIAVEFEVNGKTVRVGGIAKGAGMIAPNMLHATMLCFITTDIEIDKESLTNILQKVVDKTFNNISVDGDTSTNDTVFVLANGLSGVNYEECGEEFENALLYVCRELAKMIVKDGEGATKFMEVVVKGAKTEEDAVKASKAIVNSLLVKTAVFGGDPNWGRIVAAVGYSGADFNPEVVDVILSNYKDEVYLVKDGIPLADEGTEELKKAEEIMKSDEIKIVVDLKMGEFENVCYGCDLSYEYVRINAEYTT	not soluble
MGSDKIHHHHHHMRVKIYTLADDYAGYNSPFWAQHGVSFLVEVEGKKILFDTASYAEPILFNMKLLNLNPRDIDMIVLSHNHFDHTGGLLGILREINRKVPIFAHPEIFKVSFALEPEFMYAGTPRLKEEAEKLGGIWILTRDPITLMPGVFTLGEIKEEEKVEFEKGSTGLFKIEDGRVIEDKVEDEIGLAINTRKGLVVLAGCAHPGIVSMVKKAIKLSGNDKVYAVLGGFHLINAEDSRIEKTVEAFKELEVKKVYAGHCTGLKAESRFAQELGDRFEKLHSGKIIEIS	not soluble
MGSDKIHHHHHHMRVNMYLSRQIQPLVSRLLKQFPAVLVTGARQVGKSTLLKHIAKDYAYLTFDDPLLLEQAKQEPRLFFLNHAGNVILDEVQYAQELFSLLKLEIDKQQKNGMFLLSGSQAFELMQNVSETLAGRIAILKLQGLSLREILNVEFYLPFIPSRDYLASREKMLKSPENIWQIIHKGDMPRLYQQETDWEIYYSSYVSTYIERDVRQLTNITNTTDFTRFMVALASRSGELLNYSNVAQEVGVSNETIKRWTAILQTSGIIYLLQPYSNNHLKRTIKTPKIYFLNTGLMAYLTKWLTPETISKGAKSGQFFESFVVSEIIKSFTNNGIEPPLYFYRNTNQKEIDLIIEYDRTIYPIEIKTTANPNKKMAKSFALLNSLGKESTIGLGVIINQYPNKHYLAENLVALPVRYL	not soluble
MGSDKIHHHHHHMRYFARIAELGSFTRAASELGVAQPALSLHVRALEDQLGLQLLNRTSRGVVVTEAGQTLLVHAQAILRAVEQAEAATREQAKYPSGDVSLGILSSLSPILSIPVLEACDRRFPKIRLTISEGDSQTLRTATDIHAHDLAVNLLDVAKPTAVPLFDERLYAVGPLNAFTQRQNDLPLREALSLPLIMPSQRHGIRILLEKQALILGQKINIVRVIEGVASTKAAIRAGLGLTILGRGAVYADHQAGQLSVIPLRAPELFRRLVLDMPVNHPPTKAVLEVRQILMEVIKRLGGEGHWSCLA	not soluble
MGSDKIHHHHHHMRYFSTDSPEVKTIVAQDSRLFQFIEIAGEVQLPTKPNPFQSLVSSIVEQQLSIKAASAIYGRVEQLVGGALEKPEQLYRVSDEALRQAGVSKRKIEYIRHVCEHVESGRLDFTELEGAEATTVIEKLTAIKGIGQWTAEMFMMFSLGRLDVLSVGDVGLQRGAKWLYGNGEGDGKKLLIYHGKAWAPYETVACLYLWKAAGTFAEEYRSLEELLHHGNQC	soluble
MGSDKIHHHHHHMRYTYRHIGILTISLIVASCSFSQKQADNNHDKDMNPNVKIVVLDPGHFHASLLQKNPLASVNDTIRVYAPEGAEVKQYLNDINSYNQRAENPTSWKEEIYIGGDYLSRMLSDRQGDVVVLAGNNQKKTNYILEAIKAGYNVLSDKPLAINKKDFDLLIQAYQLAKERKLLLYDLMTERYDILNIIEKALLNNPDLFGELQKGSLNDPSVSMESVHHFFKNVSGKPLIRPVWYYDTEQQGEGIADVTTHLIDLVNWQCFPNETIRYQSDVEVLKARHWPTRITLPEFSQSTQADTFPAFLNKYINNNVLEVLANGSLNYTVKGIHIGMKVIWNYTPPSDGGDTFTSLKKGSKATLKTIQDKESGFVKQLYIQRAADSDHSEFESQLQKAIKQLQATYPFLSVKKMNEGLYLIDIPQADRLGHEAHFSKVAEAFLGYLHDKNMPEWENENTISKYYITTTAVELAKKEK	not soluble
MGSDKIHHHHHHMSALVDPVTDTDLDAYVDDQLDVTRRIEVEAFLSTRPEAAARVMSDLRTRDELRVALAGSKGMARPATADAARRLERGLARGRIFGVLQRSAAVAAFVAAGWLANGIIGPMSVTKVVASPQPPAYVDEAVRAHRTTLVRETMPSQPEAPNYSAGEIRAATAIVMPSLPKDWKVRDVQIYPSRFGPSVEMAVDTKDMGLVSLFAIRPGTFDVVKPTVAPSGDISSAYFQIGEVAYAVVAKSGVRDLDRAAETLARTLY	not soluble
MGSDKIHHHHHHMSATSLYRLFAPQIEFLSPAEKQVFFYIDNHISTIEKMSLTSLAESTNVSTTTVIRMCHKLKLSGFSELKFLLHSDKTETKPLSKDYSSTFLEKIRLGIEQLPKKEIEQVATRIAYAPKIYIACLGMTKTLGEYFSKSLVTSKKNVVFTYDSFIIDILPQIVERDDLIIIISESGGTENTLSLAEHLKYNLSNVIAIVNNPNAQISQYVETIIYASSEEFDEDSFKHHHAPLLIVIDLILNIFEQQKKLI	not soluble
MGSDKIHHHHHHMSDGRLTALFPAFPHPASNQPVFAEASPHDDELMTQAVPQVSCQQALAIAQQEYGLSGQMSLLQGERDVNFCLTVTPDERYMLKVINAAEPADVSNFQTALLLHLARQAPELPVPRIRSTKAGQSETGVEIDGVLLRVRLVSYLAGMPQYLASPSTALMPQLGGTLAQLDNALHSFTHPAANRALLWDISRAEQVRPYLDFVSEPQQYQHLQRIFDRYDSNVAPLLTTLRRQVIHNDLNPHNVLVDGSSPTRVTGIIDFGDAVFAPLICEVATALAYQIGDGTDLLEHVVPFVAAYHQRIPLAPEEIALLPDLIATRMALTLTIAQWRASRYPDNREYLLRNVPRCWHSLQRIATYSHAQFLTRLQQVCPENAR	not soluble
MGSDKIHHHHHHMSDIIQFPNSSKKLYKDIKRAEQDQNYDLMYEYIVQYERQFELTEEIAMMKCRMLYETGSFLELREETIVLLKTGIQQYDALMIYYVKSLIGLGQYFEAVEVIHQIIDEVKDHKTRMALHPLKEFAKSKLIEDEKRLTQSLTDFDTLSMREQTHLILKLIDNGHFQFQETVLYILKSNTYSYNLISLMIEYLRFANCTQELTIEKYGMDVTFVPANLNGLEHTTLKEKVIPNVMETLNDGALHIAEEAHHIMNNHSIMIYPIDIETLFETNKWINAYECYFKNMLGLKCELQSIDAFNFIQQLDLNNNS	not soluble
MGSDKIHHHHHHMSDIPYQTIDTRALHRFAQPDRIAPAMYHDPALFEAELDRIFYRTWIWVAHDSELPNPGDFITTTIGRQPVIVVRDKTGEINVLQNRCRHRGATVCESHKGNAKGFTCPYHSWSYALDGTLRALPYGDGYEGVCEKGDLPLVKLRVGVYQGLIFASFNDDIEPLEDFLGGAKPWIDLFMKQGAGYPIKANGEHKFKFKGNWKIQLENTTDLYHFPVVHKSWMKSIDDETAAAITSFMTSEHAFCRALGNGHSLAVLMPELIDLDEDDGAPLPERFAPLAATLAERHAPDEVRRIVRSLLGVGFNLNLFPNLALSMAFFRVLRPISANETEIRHVALAMDGGPDEANRERLRIHEHFQGPFGFGSPDDAEAWERVQRGAHAGPDVPILVNRGLNRETTAANGEKTAHATDETGMREAYQQWRKLMEQA	not soluble
MGSDKIHHHHHHMSDSVSIAKYMHRDCLHCPAPLVGTSFKPCHFADIVDNGLQDGFFEVHAENYMGKGGPPHRALSALRETYPVSVHGVCLSIGGPSPLDAHHLARFRDVVARYEPVLVSEHLAWSSHGGAFYNDLLPLPYTKATLDRVCAHVDQIQEAIARPLLLENPSTYVGFASSTMSETEFIAAVAGRTGCGLLLDINNAFVSATNHGCSAADYLADFPLEQVGEIHLAGHSEQRDDEDEPLLIDSHDRPIAGPVWALYASVIARTGPVPTLVEWDSQLPDWLVLRAQALEARRIMDAAVASPVEVADHAL	not soluble
MGSDKIHHHHHHMSDVYIFCLSMGSPTLNTRVLTNSMELKVGCCGFPVSMKRYFETFDVVEVQKTFYKPPEVKTAEKWRKSAPEDFEFTIKAWQVITHPPSSPTYKKAGIKFENCGFFRPTEVVFMAWEETKKIAKALKAEIIVFQTPKSFRDTAENMENMRAFFSSIDGSFTFCFEPRGWSEESVRAICEELDLVHVVDPFVSKQLYGEICYYRLHGFDYKHKYTDDELEKLLGIVDRDGYVMFNNVHMFDDALRFKKLVEREAKSK	not soluble
MGSDKIHHHHHHMSEALTIAGVDIQPGTQHQLELPVASLYTDTQVSIPVHVIRAKKDGPKVFVSAAVHGDELNGIEIIRRLIQSKLKLLKGTLILVPMVNVYGVLNQSRYMPDRRDLNRCFPGSPKGSLAGRVAYTFLNSIVQHCDYGIDLHTGAIHRSNLPQIRANLDDEQTLALAQAFGVPVLLNANVRDGSLREAAVNKGTRVLLYEAGQALRFDELSIQTGERGILNVLSSLGLIRKRRLRKKIEPFIANRSDWTRASASGFVCEFAKLGAYVEKGQVLAEINSPLGELIQSVVSNRTGIVIGKQNIPLVLEGDAMFHVAYFGSAADEVAEHIEIMNDQIMPLTTQTI	not soluble
MGSDKIHHHHHHMSETEPTSEQPHIAITGGAGYIGSRVIYELQQAHPDWEITAIDNFYLGTVQSVGDVDIEHVDIRNRDRLEAALDGADVVMHLAAVSGVDDCEEKQDLAYEVNVQGTDNVAWFCRKTGAALIFPFSMAVIGDPQEFPITVDHPRDPLNWYGRTKLLNERDVETYADGAFPAHQFMISNLYGSHEIDGQTVSKGTVINFFVNRALAGETLTVYEPGTQSRNFIHVKDVARAYVDSCERLLEQLDRGETGVEKYEIASDEDPSVHTVAKLVRDIAADIADIDADVELVENPRGDDETLVDSFTVDTGRTTAALGWTPEHDVESAIRTALESANT	not soluble
MGSDKIHHHHHHMSEYLEIPELNKAFPFRSFVNEGEVLVYPHWHKEIEIIYALKGSLNLGVNDMPIQLNEGEIQIINGGDVHYFLASPNSERIVIQFDLSLFQEEMQMDGQNGTLREMLTEMAHLSREWPEETTAKVQSLIRNIHLESSNDSPGKHYILKADLLAIIGLIYREIPQKKTQPDSVISEKAVLKSKETLQKLDQIFSYVEKHYQEPVSLQEVADYTGFSTYYFTKFFKRNTGMTFVTFLNDYRLNKAKWMLLNEAFPVTEVAELAGFSSVKTFHHAFKRAMGVAPLKYRKTIYGNN	not soluble
